From patent US20060210984A1
Values belong to the substance of their own block, whether it stands above or below them.

Experiments:
[1] = target: IL-12p70 (human) (UniProt P29459); test: sandwich microarray in flow cell, chemiluminescence, cytokine 1 ng/ml, divided by chip-specific PNA calibration factor; AVG of Chips 1-5
[2] = target: IL-12p70 (human) (UniProt P29459); test: sandwich microarray in flow cell, chemiluminescence, cytokine 1 ng/ml, divided by chip-specific PNA calibration factor; Chip 1
[3] = target: IL-12p70 (human) (UniProt P29459); test: sandwich microarray in flow cell, chemiluminescence, cytokine 1 ng/ml, divided by chip-specific PNA calibration factor; Chip 3
[4] = target: IL-12p70 (human) (UniProt P29459); test: sandwich microarray in flow cell, chemiluminescence, cytokine 1 ng/ml, divided by chip-specific PNA calibration factor; Chip 2
[5] = target: IL-12p70 (human) (UniProt P29459); test: sandwich microarray in flow cell, chemiluminescence, cytokine 1 ng/ml; Chip 2
[6] = target: IL-12p70 (human) (UniProt P29459); test: sandwich microarray in flow cell, chemiluminescence, cytokine 1 ng/ml; Chip 1
[7] = target: IL-12p70 (human) (UniProt P29459); test: sandwich microarray in flow cell, chemiluminescence, cytokine 1 ng/ml, divided by chip-specific PNA calibration factor; Chip 5
[8] = target: IL-12p70 (human) (UniProt P29459); test: sandwich microarray in flow cell, chemiluminescence, cytokine 1 ng/ml; AVG of Chips 1-5
[9] = target: IL-12p70 (human) (UniProt P29459); test: sandwich microarray in flow cell, chemiluminescence, cytokine 1 ng/ml; Chip 5
[10] = target: IL-12p70 (human) (UniProt P29459); test: sandwich microarray in flow cell, chemiluminescence, cytokine 1 ng/ml; Chip 4
[11] = target: IL-12p70 (human) (UniProt P29459); test: sandwich microarray in flow cell, chemiluminescence, cytokine 1 ng/ml; Chip 3
[12] = target: IL-12p70 (human) (UniProt P29459); test: sandwich microarray in flow cell, chemiluminescence, cytokine 1 ng/ml, divided by chip-specific PNA calibration factor; Chip 4
[13] = target: IL-1b (human) (UniProt P01584); test: sandwich microarray in flow cell, chemiluminescence, cytokine 1 ng/ml, divided by chip-specific PNA calibration factor; AVG of Chips 1-5
[14] = target: IL-1b (human) (UniProt P01584); test: sandwich microarray in flow cell, chemiluminescence, cytokine 1 ng/ml, divided by chip-specific PNA calibration factor; Chip 1
[15] = target: IL-1b (human) (UniProt P01584); test: sandwich microarray in flow cell, chemiluminescence, cytokine 1 ng/ml, divided by chip-specific PNA calibration factor; Chip 3
[16] = target: IL-1b (human) (UniProt P01584); test: sandwich microarray in flow cell, chemiluminescence, cytokine 1 ng/ml, divided by chip-specific PNA calibration factor; Chip 2
[17] = target: IL-1b (human) (UniProt P01584); test: sandwich microarray in flow cell, chemiluminescence, cytokine 1 ng/ml; Chip 2
[18] = target: IL-1b (human) (UniProt P01584); test: sandwich microarray in flow cell, chemiluminescence, cytokine 1 ng/ml; Chip 1
[19] = target: IL-1b (human) (UniProt P01584); test: sandwich microarray in flow cell, chemiluminescence, cytokine 1 ng/ml, divided by chip-specific PNA calibration factor; Chip 5
[20] = target: IL-1b (human) (UniProt P01584); test: sandwich microarray in flow cell, chemiluminescence, cytokine 1 ng/ml; AVG of Chips 1-5
[21] = target: IL-1b (human) (UniProt P01584); test: sandwich microarray in flow cell, chemiluminescence, cytokine 1 ng/ml; Chip 5
[22] = target: IL-1b (human) (UniProt P01584); test: sandwich microarray in flow cell, chemiluminescence, cytokine 1 ng/ml; Chip 4
[23] = target: IL-1b (human) (UniProt P01584); test: sandwich microarray in flow cell, chemiluminescence, cytokine 1 ng/ml; Chip 3
[24] = target: IL-1b (human) (UniProt P01584); test: sandwich microarray in flow cell, chemiluminescence, cytokine 1 ng/ml, divided by chip-specific PNA calibration factor; Chip 4
[25] = target: IFN-γ (human) (UniProt P01579); test: sandwich microarray in flow cell, chemiluminescence, cytokine 1 ng/ml, divided by chip-specific PNA calibration factor; AVG of Chips 1-5
[26] = target: IFN-γ (human) (UniProt P01579); test: sandwich microarray in flow cell, chemiluminescence, cytokine 1 ng/ml, divided by chip-specific PNA calibration factor; Chip 1
[27] = target: IFN-γ (human) (UniProt P01579); test: sandwich microarray in flow cell, chemiluminescence, cytokine 1 ng/ml, divided by chip-specific PNA calibration factor; Chip 3
[28] = target: IFN-γ (human) (UniProt P01579); test: sandwich microarray in flow cell, chemiluminescence, cytokine 1 ng/ml, divided by chip-specific PNA calibration factor; Chip 2
[29] = target: IFN-γ (human) (UniProt P01579); test: sandwich microarray in flow cell, chemiluminescence, cytokine 1 ng/ml; Chip 2
[30] = target: IFN-γ (human) (UniProt P01579); test: sandwich microarray in flow cell, chemiluminescence, cytokine 1 ng/ml; Chip 1
[31] = target: IFN-γ (human) (UniProt P01579); test: sandwich microarray in flow cell, chemiluminescence, cytokine 1 ng/ml, divided by chip-specific PNA calibration factor; Chip 5
[32] = target: IFN-γ (human) (UniProt P01579); test: sandwich microarray in flow cell, chemiluminescence, cytokine 1 ng/ml; AVG of Chips 1-5
[33] = target: IFN-γ (human) (UniProt P01579); test: sandwich microarray in flow cell, chemiluminescence, cytokine 1 ng/ml; Chip 5
[34] = target: IFN-γ (human) (UniProt P01579); test: sandwich microarray in flow cell, chemiluminescence, cytokine 1 ng/ml; Chip 4
[35] = target: IFN-γ (human) (UniProt P01579); test: sandwich microarray in flow cell, chemiluminescence, cytokine 1 ng/ml; Chip 3
[36] = target: IFN-γ (human) (UniProt P01579); test: sandwich microarray in flow cell, chemiluminescence, cytokine 1 ng/ml, divided by chip-specific PNA calibration factor; Chip 4
[37] = target: IL-1a (human) (UniProt P01583); test: sandwich microarray in flow cell, chemiluminescence, cytokine 1 ng/ml, divided by chip-specific PNA calibration factor; AVG of Chips 1-5
[38] = target: IL-1a (human) (UniProt P01583); test: sandwich microarray in flow cell, chemiluminescence, cytokine 1 ng/ml, divided by chip-specific PNA calibration factor; Chip 1
[39] = target: IL-1a (human) (UniProt P01583); test: sandwich microarray in flow cell, chemiluminescence, cytokine 1 ng/ml, divided by chip-specific PNA calibration factor; Chip 3
[40] = target: IL-1a (human) (UniProt P01583); test: sandwich microarray in flow cell, chemiluminescence, cytokine 1 ng/ml, divided by chip-specific PNA calibration factor; Chip 2
[41] = target: IL-1a (human) (UniProt P01583); test: sandwich microarray in flow cell, chemiluminescence, cytokine 1 ng/ml; Chip 2
[42] = target: IL-1a (human) (UniProt P01583); test: sandwich microarray in flow cell, chemiluminescence, cytokine 1 ng/ml; Chip 1
[43] = target: IL-1a (human) (UniProt P01583); test: sandwich microarray in flow cell, chemiluminescence, cytokine 1 ng/ml, divided by chip-specific PNA calibration factor; Chip 5
[44] = target: IL-1a (human) (UniProt P01583); test: sandwich microarray in flow cell, chemiluminescence, cytokine 1 ng/ml; AVG of Chips 1-5
[45] = target: IL-1a (human) (UniProt P01583); test: sandwich microarray in flow cell, chemiluminescence, cytokine 1 ng/ml; Chip 5
[46] = target: IL-1a (human) (UniProt P01583); test: sandwich microarray in flow cell, chemiluminescence, cytokine 1 ng/ml; Chip 4
[47] = target: IL-1a (human) (UniProt P01583); test: sandwich microarray in flow cell, chemiluminescence, cytokine 1 ng/ml; Chip 3
[48] = target: IL-1a (human) (UniProt P01583); test: sandwich microarray in flow cell, chemiluminescence, cytokine 1 ng/ml, divided by chip-specific PNA calibration factor; Chip 4
[49] = target: IL-2 (human) (UniProt P60568); test: sandwich microarray in flow cell, chemiluminescence, cytokine 1 ng/ml, divided by chip-specific PNA calibration factor; AVG of Chips 1-5
[50] = target: IL-2 (human) (UniProt P60568); test: sandwich microarray in flow cell, chemiluminescence, cytokine 1 ng/ml, divided by chip-specific PNA calibration factor; Chip 1
[51] = target: IL-2 (human) (UniProt P60568); test: sandwich microarray in flow cell, chemiluminescence, cytokine 1 ng/ml, divided by chip-specific PNA calibration factor; Chip 3
[52] = target: IL-2 (human) (UniProt P60568); test: sandwich microarray in flow cell, chemiluminescence, cytokine 1 ng/ml, divided by chip-specific PNA calibration factor; Chip 2
[53] = target: IL-2 (human) (UniProt P60568); test: sandwich microarray in flow cell, chemiluminescence, cytokine 1 ng/ml; Chip 2
[54] = target: IL-2 (human) (UniProt P60568); test: sandwich microarray in flow cell, chemiluminescence, cytokine 1 ng/ml; Chip 1
[55] = target: IL-2 (human) (UniProt P60568); test: sandwich microarray in flow cell, chemiluminescence, cytokine 1 ng/ml, divided by chip-specific PNA calibration factor; Chip 5
[56] = target: IL-2 (human) (UniProt P60568); test: sandwich microarray in flow cell, chemiluminescence, cytokine 1 ng/ml; AVG of Chips 1-5
[57] = target: IL-2 (human) (UniProt P60568); test: sandwich microarray in flow cell, chemiluminescence, cytokine 1 ng/ml; Chip 5
[58] = target: IL-2 (human) (UniProt P60568); test: sandwich microarray in flow cell, chemiluminescence, cytokine 1 ng/ml; Chip 4
[59] = target: IL-2 (human) (UniProt P60568); test: sandwich microarray in flow cell, chemiluminescence, cytokine 1 ng/ml; Chip 3
[60] = target: IL-2 (human) (UniProt P60568); test: sandwich microarray in flow cell, chemiluminescence, cytokine 1 ng/ml, divided by chip-specific PNA calibration factor; Chip 4

Chain of UniProt P01579 (P01579 24-166 limits assumed): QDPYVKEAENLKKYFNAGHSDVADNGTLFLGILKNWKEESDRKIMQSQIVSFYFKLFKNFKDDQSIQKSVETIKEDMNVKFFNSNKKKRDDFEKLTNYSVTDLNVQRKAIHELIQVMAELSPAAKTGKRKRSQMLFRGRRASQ
Chain of UniProt P01584 (P01584 117-269 limits assumed): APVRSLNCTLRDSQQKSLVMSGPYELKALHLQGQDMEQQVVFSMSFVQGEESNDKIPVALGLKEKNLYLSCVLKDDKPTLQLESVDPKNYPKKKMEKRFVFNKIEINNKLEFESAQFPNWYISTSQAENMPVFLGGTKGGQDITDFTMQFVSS
Chain of UniProt P60568 (P60568 21-153 limits assumed): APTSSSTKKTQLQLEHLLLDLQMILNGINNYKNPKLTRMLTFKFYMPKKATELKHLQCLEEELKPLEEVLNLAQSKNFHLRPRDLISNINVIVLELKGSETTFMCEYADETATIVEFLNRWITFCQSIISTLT
Chain of UniProt P29459 (P29459 23-219 limits assumed, chain 1 of 2): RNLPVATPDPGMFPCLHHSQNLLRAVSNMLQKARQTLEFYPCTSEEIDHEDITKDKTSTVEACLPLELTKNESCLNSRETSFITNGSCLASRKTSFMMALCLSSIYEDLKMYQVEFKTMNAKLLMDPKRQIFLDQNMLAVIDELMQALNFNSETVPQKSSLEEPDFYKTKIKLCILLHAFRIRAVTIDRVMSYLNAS
Chain of UniProt P29459 (P29460 23-328 limits assumed, chain 2 of 2, further chain): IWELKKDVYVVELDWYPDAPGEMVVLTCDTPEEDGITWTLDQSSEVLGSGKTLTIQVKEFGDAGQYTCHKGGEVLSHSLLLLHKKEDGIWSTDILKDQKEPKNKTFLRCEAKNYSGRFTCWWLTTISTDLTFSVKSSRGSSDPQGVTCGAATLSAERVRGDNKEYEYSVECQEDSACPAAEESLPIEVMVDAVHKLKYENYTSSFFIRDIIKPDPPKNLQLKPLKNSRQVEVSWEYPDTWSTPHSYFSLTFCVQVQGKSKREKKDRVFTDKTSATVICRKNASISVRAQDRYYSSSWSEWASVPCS
Chain of UniProt P01583 (P01583 113-271 limits assumed): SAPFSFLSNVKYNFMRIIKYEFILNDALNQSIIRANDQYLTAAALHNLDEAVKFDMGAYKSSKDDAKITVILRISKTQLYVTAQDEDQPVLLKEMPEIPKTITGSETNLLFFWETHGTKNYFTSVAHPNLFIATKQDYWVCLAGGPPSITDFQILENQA

Substance: MAb IL-1b (monoclonal capture antibody of the anti-human IL-1b OptEIA matched pair, BD Biosciences-Pharmingen)
- chemiluminescent spot intensity (Calibrated Data) [13]: 477
- chemiluminescent spot intensity (Calibrated Data) [14]: 498
- chemiluminescent spot intensity (Calibrated Data) [15]: 486
- chemiluminescent spot intensity (Calibrated Data) [16]: 513
- chemiluminescent spot intensity (Un-Calibrated Data) [17]: 150
- chemiluminescent spot intensity (Un-Calibrated Data) [18]: 297
- chemiluminescent spot intensity (Calibrated Data) [19]: 404
- chemiluminescent spot intensity (Un-Calibrated Data) [20]: 257
- chemiluminescent spot intensity (Un-Calibrated Data) [21]: 131
- chemiluminescent spot intensity (Un-Calibrated Data) [22]: 221
- chemiluminescent spot intensity (Un-Calibrated Data) [23]: 486
- chemiluminescent spot intensity (Calibrated Data) [24]: 485

Substance: MAb IFN-g (monoclonal capture antibody of the anti-human IFN-γ OptEIA matched pair, BD Biosciences-Pharmingen)
- chemiluminescent spot intensity (Calibrated Data) [25]: 2.88
- chemiluminescent spot intensity (Calibrated Data) [26]: 0
- chemiluminescent spot intensity (Calibrated Data) [27]: 10
- chemiluminescent spot intensity (Calibrated Data) [28]: 0
- chemiluminescent spot intensity (Un-Calibrated Data) [29]: 0
- chemiluminescent spot intensity (Un-Calibrated Data) [30]: 0
- chemiluminescent spot intensity (Calibrated Data) [31]: 0
- chemiluminescent spot intensity (Un-Calibrated Data) [32]: 2.4
- chemiluminescent spot intensity (Un-Calibrated Data) [33]: 0
- chemiluminescent spot intensity (Un-Calibrated Data) [34]: 2
- chemiluminescent spot intensity (Un-Calibrated Data) [35]: 10
- chemiluminescent spot intensity (Calibrated Data) [36]: 4.39

Substance: MAb IL-1a (monoclonal capture antibody of the anti-human IL-1a OptEIA matched pair, BD Biosciences-Pharmingen)
- chemiluminescent spot intensity (Calibrated Data) [37]: 321
- chemiluminescent spot intensity (Calibrated Data) [38]: 293
- chemiluminescent spot intensity (Calibrated Data) [39]: 312
- chemiluminescent spot intensity (Calibrated Data) [40]: 325
- chemiluminescent spot intensity (Un-Calibrated Data) [41]: 95
- chemiluminescent spot intensity (Un-Calibrated Data) [42]: 175
- chemiluminescent spot intensity (Calibrated Data) [43]: 373
- chemiluminescent spot intensity (Un-Calibrated Data) [44]: 168
- chemiluminescent spot intensity (Un-Calibrated Data) [45]: 121
- chemiluminescent spot intensity (Un-Calibrated Data) [46]: 137
- chemiluminescent spot intensity (Un-Calibrated Data) [47]: 312
- chemiluminescent spot intensity (Calibrated Data) [48]: 301

Other lines, results leading:

- chemiluminescent spot intensity (Calibrated Data) [1]: 903
- chemiluminescent spot intensity (Calibrated Data) [2]: 929
- chemiluminescent spot intensity (Calibrated Data) [3]: 956
- chemiluminescent spot intensity (Calibrated Data) [4]: 872
- chemiluminescent spot intensity (Un-Calibrated Data) [5]: 255
- chemiluminescent spot intensity (Un-Calibrated Data) [6]: 554
- chemiluminescent spot intensity (Calibrated Data) [7]: 888
- chemiluminescent spot intensity (Un-Calibrated Data) [8]: 490
- chemiluminescent spot intensity (Un-Calibrated Data) [9]: 288
- chemiluminescent spot intensity (Un-Calibrated Data) [10]: 397
- chemiluminescent spot intensity (Un-Calibrated Data) [11]: 956
- chemiluminescent spot intensity (Calibrated Data) [12]: 872
Substance: MAb IL-12 p70 (monoclonal capture antibody of the anti-human IL-12p70 OptEIA matched pair, BD Biosciences-Pharmingen)

- chemiluminescent spot intensity (Calibrated Data) [49]: 423
- chemiluminescent spot intensity (Calibrated Data) [50]: 421
- chemiluminescent spot intensity (Calibrated Data) [51]: 441
- chemiluminescent spot intensity (Calibrated Data) [52]: 434
- chemiluminescent spot intensity (Un-Calibrated Data) [53]: 127
- chemiluminescent spot intensity (Un-Calibrated Data) [54]: 251
- chemiluminescent spot intensity (Calibrated Data) [55]: 389
- chemiluminescent spot intensity (Un-Calibrated Data) [56]: 228
- chemiluminescent spot intensity (Un-Calibrated Data) [57]: 126
- chemiluminescent spot intensity (Un-Calibrated Data) [58]: 196
- chemiluminescent spot intensity (Un-Calibrated Data) [59]: 441
- chemiluminescent spot intensity (Calibrated Data) [60]: 430
Substance: MAb IL-2 (monoclonal capture antibody of the anti-human IL-2 OptEIA matched pair, BD Biosciences-Pharmingen)
